From publication PMC8131196, “Structure and dynamics of a mycobacterial type VII secretion system” (Nature, 2021)

B1: MycP5 protease (enzyme)
chain: ISPPTIDPGALPPDGPPGPLAPMKQNAYCTEVGVLPGTDFQLQPKYMEMLNLNEAWQFGRGDGVKVAVIDTGVTPHPRLPRLIPGGDYVMAGGDGLSDCDAHGTLVASMIAAVPANGAVPLPSVPRRPVTIPTTETPPPPQTVTLSPVPPQTVTVIPAPPPEEGVPPGAPVPGPEPPPAPGPQPPAVDRGGGTVTVPSYSGGRKIAPIDNPRNPHPSAPSPALGPPPDAFSGIAPGVEIISIRQSSQAFGLKDPYTGDEDPQTAQKIDNVETMARAIVHAANMGASVINISDVMCMSARNVIDQRALGAAVHYAAVDKDAVIVAAAGDGSKKDCKQNPIFDPLQPDDPRAWNAVTTVVTPSWFHDYVLTVGAVDANGQPLSKMSIAGPWVSISAPGTDVVGLSPRDDGLINAIDGPDNSLLVPAGTSFSAAIVSGVAALVRAKFPELSAYQIINRLIHTARPPARGVDNQVGYGVVDPVAALTWDVPKGPAEPPKQLSAPLVVPQPPAPRDMVPIWVAAGGLAGALLIGGAVFGTATLMRRSRKQQ
notes: also called mycosin
B2: EccC5 (natural protein)
chain: MKRGFARPTPEKPPVIKPENIVLSTPLSIPPPEGKPWWLIVVGVVVVGLLGGMVAMVFASGSHVFGGIGSIFPLFMMVGIMMMMFRGMGGGQQQMSRPKLDAMRAQFMLMLDMLRETAQESADSMDANYRWFHPAPNTLAAAVGSPRMWERKPDGKDLNFGVVRVGVGMTRPEVTWGEPQNMPTDIELEPVTGKALQEFGRYQSVVYNLPKMVSLLVEPWYALVGEREQVLGLMRAIICQLAFSHGPDHVQMIVVSSDLDQWDWVKWLPHFGDSRRHDAAGNARMVYTSVREFAAEQAELFAGRGSFTPRHASSSAQTPTPHTVIIADVDDPQWEYVISAEGVDGVTFFDLTGSSMWTDIPERKLQFDKTGVIEALPRDRDTWMVIDDKAWFFALTDQVSIAEAEEFAQKLAQWRLAEAYEEIGQRVAHIGARDILSYYGIDDPGNIDFDSLWASRTDTMGRSRLRAPFGNRSDNGELLFLDMKSLDEGGDGPHGVMSGTTGSGKSTLVRTVIESLMLSHPPEELQFVLADLKGGSAVKPFAGVPHVSRIITDLEEDQALMERFLDALWGEIARRKAICDSAGVDDAKEYNSVRARMRARGQDMAPLPMLVVVIDEFYEWFRIMPTAVDVLDSIGRQGRAYWIHLMMASQTIESRAEKLMENMGYRLVLKARTAGAAQAAGVPNAVNLPAQAGLGYFRKSLEDIIRFQAEFLWRDYFQPGVSIDGEEAPALVHSIDYIRPQLFTNSFTPLEVSVGGPDIEPVVAQPNGEVLESDDIEGGEDEDEEGVRTPKVGTVIIDQLRKIKFEPYRLWQPPLTQPVAIDDLVNRFLGRPWHKEYGSACNLVFPIGIIDRPYKHDQPPWTVDTSGPGANVLILGAGGSGKTTALQTLICSAALTHTPQQVQFYCLAYSSTALTTVSRIPHVGEVAGPTDPYGVRRTVAELLALVRERKRSFLECGIASMEMFRRRKFGGEAGPVPDDGFGDVYLVIDNYRALAEENEVLIEQVNVIINQGPSFGVHVVVTADRESELRPPVRSGFGSRIELRLAAVEDAKLVRSRFAKDVPVKPGRGMVAVNYVRLDSDPQAGLHTLVARPALGSTPDNVFECDSVVAAVSRLTSAQAPPVRRLPARFGVEQVRELASRDTRQGVGAGGIAWAISELDLAPVYLNFAENSHLMVTGRRECGRTTTLATIMSEIGRLYAPGASSAPPPAPGRPSAQVWLVDPRRQLLTALGSDYVERFAYNLDGVVAMMGELAAALAGREPPPGLSAEELLSRSWWSGPEIFLIVDDIQQLPPGFDSPLHKAVPFVNRAADVGLHVIVTRTFGGWSSAGSDPMLRALHQANAPLLVMDADPDEGFIRGKMKGGPLPRGRGLLMAEDTGVFVQVAATEVRR
notes: also called EccC5 ATPase; not shown: TwinStrep, C-terminal, kept
B3: EccB5 (natural protein)
chain: MAEESRGQRGSGYGLGLSTRTQVTGYQFLARRTAMALTRWRVRMEIEPGRRQTLAVVASVSAALVICLGALLWSFISPSGQLNESPIIADRDSGALYVRVGDRLYPALNLASARLITGRPDNPHLVRSSQIATMPRGPLVGIPGAPSSFSPKSPPASSWLVCDTVATSSSIGSLQGVTVTVIDGTPDLTGHRQILSGSDAVVLRYGGDAWVIREGRRSRIEPTNRAVLLPLGLTPEQVSQARPMSRALFDALPVGPELLVPEVPNAGGPATFPGAPGPIGTVIVTPQISGPQQYSLVLGDGVQTLPPLVAQILQNAGSAGNTKPLTVEPSTLAKMPVVNRLDLSAYPDNPLEVVDIREHPSTCWWWERTAGENRARVRVVSGPTIPVAATEMNKVVSLVKADTSGRQADQVYFGPDHANFVAVTGNNPGAQTSESLWWVTDAGARFGVEDSKEARDALGLTLTPSLAPWVALRLLPQGPTLSRADALVEHDTLPMDMTPAELVVPK
notes: also called inner EccB5; outer EccB5

What was measured:
Test in all cases: cryo-EM structure
cryo-EM structure = target: the molecule itself
EccC5 = target: B2; details: both partners purified
MycP5 protease = target: B1; details: both partners purified

Binder	stoichiometry N (cryo-EM structure)	binding result (cryo-EM structure)	binding result (EccC5)	binding result (MycP5 protease)
B1	3	–	–	–
B2	–	binds	–	–
B3	6	–	binds	binds
